According to PMC9839807 (2022):

B1: DACT1 (dishevelled binding antagonist of beta catenin 1), wildtype, Myc-tagged [human] / DVL2 (dishevelled segment polarity protein 2), Flag(3x)-tagged [not stated] (parent complex)
chain 1: MKPSPAGTAKELEPPAPARGEQRTAEPEGRWREKGEADTERQRTRERQEATLAGLAELEYLRQRQELLVRGALRGAGGAGAAAPRAGELLGEAAQRSRLEEKFLEENILLLRKQLNCLRRRDAGLLNQLQELDKQISDLRLDVEKTSEEHLETDSRPSSGFYELSDGASGSLSNSSNSVFSECLSSCHSSTCFCSPLEATLSLSDGCPKSADLIGLLEYKEGHCEDQASGAVCRSLSTPQFNSLDVIADVNPKYQCDLVSKNGNDVYRYPSPLHAVAVQSPMFLLCLTGNPLREEDRLGNHASDICGGSELDAVKTDSSLPSPSSLWSASHPSSSKKMDGYILSLVQKKTHPVRTNKPRTSVNADPTKGLLRNGSVCVRAPGGVSQGNSVNLKNSKQACLPSGGIPSLNNGTFSPPKQWSKESKAEQAESKRVPLPEGCPSGAASDLQSKHLPKTAKPASQEHARCSAIGTGESPKESAQLSGASPKESPSRGPAPPQENKVVQPLKKMSQKNSLQGVPPATPPLLSTAFPVEERPALDFKSEGSSQSLEEAHLVKAQFIPGQQPSVRLHRGHRNMGVVKNSSLKHRGPALQGLENGLPTVREKTRAGSKKCRFPDDLDTNKKLKKASSKGRKSGGGPEAGVPGRPAGGGHRAGSRAHGHGREAVVAKPKHKRTDYRRWKSSAEISYEEALRRARRGRRENVGLYPAPVPLPYASPYAYVASDSEYSAECESLFHSTVVDTSEDEQSNYTTNCFGDSESSVSEGEFVGESTTTSDSEESGGLIWSQFVQTLPIQTVTAPDLHNHPAKTFVKIKASHNLKKKILRFRSGSLKLMTTV
chain 2: MAGSSTGGGGVGETKVIYHLDEEETPYLVKIPVPAERITLGDFKSVLQRPAGAKYFFKSMDQDFGVVKEEISDDNARLPCFNGRVVSWLVSSDNPQPEMAPPVHEPRAELAPPAPPLPPLPPERTSGIGDSRPPSFHPNVSSSHENLEPETETESVVSLRRERPRRRDSSEHGAGGHRTGGPSRLERHLAGYESSSTLMTSELESTSLGDSDEEDTMSRFSSSTEQSSASRLLKRHRRRRKQRPPRLERTSSFSSVTDSTMSLNIITVTLNMEKYNFLGISIVGQSNERGDGGIYIGSIMKGGAVAADGRIEPGDMLLQVNDMNFENMSNDDAVRVLRDIVHKPGPIVLTVAKCWDPSPQAYFTLPRNEPIQPIDPAAWVSHSAALTGTFPAYPGSSSMSTITSGSSLPDGCEGRGLSVHTDMASVTKAMAAPESGLEVRDRMWLKITIPNAFLGSDVVDWLYHHVEGFPERREARKYASGLLKAGLIRHTVNKITFSEQCYYVFGDLSGGCESYLVNLSLNDNDGSSGASDQDTLAPLPGATPWPLLPTFSYQYPAPHPYSPQPPPYHELSSYTYGGGSASSQHSEGSRSSGSTRSDGGAGRTGRPEERAPESKSGSGSESEPSSRGGSLRRGGEASGTSDGGPPPSRGSTGGAPNLRAHPGLHPYGPPPGMALPYNPMMVVMMPPPPPPVPPAVQPPGAPPVRDLGSVPPELTASRQSFHMAMGNPSEFFVDVM

Variants of: B1
Assay: co-immunoprecipitation (IP: anti-Myc), band ratio quantified; parent: 1; read off a plot

Variant	response
chain 1 L823R	~0.6
chain 1 L591F	~0.7
chain 1 G644D	~0.72
chain 1 R568K	~0.69
chain 1 P669A	~0.69
chain 1 T367K	~0.72
chain 1 K630N	~0.68
